The target of assay [1] is 1:1 8D6 Fab/IgE-Fc complex. The experiment in a line: SPR; sandwich: about 100 RU of His-tagged IgE-Fc captured on an 8D6 Fab surface, then a second 8D6 Fab injected at 30 uL/min; HBS-P.
Assay [2] deals with His-tagged IgE-Fc (human). The description is as above.

One may read the Kd as the equilibrium constant for the complex coming apart. Low values mean a tighter complex, high ones a looser complex. As a reminder, the koff is the first-order rate constant of dissociation. Usually kon stands for the rate constant with which the complex forms. Low readings indicate slower complex formation, high ones faster complex formation. The stoichiometry N is a count of units in the complex or per binding partner.

Sequence of His-tagged IgE-Fc (human) (P01854 other isoform, or with tags, fused parts or gaps): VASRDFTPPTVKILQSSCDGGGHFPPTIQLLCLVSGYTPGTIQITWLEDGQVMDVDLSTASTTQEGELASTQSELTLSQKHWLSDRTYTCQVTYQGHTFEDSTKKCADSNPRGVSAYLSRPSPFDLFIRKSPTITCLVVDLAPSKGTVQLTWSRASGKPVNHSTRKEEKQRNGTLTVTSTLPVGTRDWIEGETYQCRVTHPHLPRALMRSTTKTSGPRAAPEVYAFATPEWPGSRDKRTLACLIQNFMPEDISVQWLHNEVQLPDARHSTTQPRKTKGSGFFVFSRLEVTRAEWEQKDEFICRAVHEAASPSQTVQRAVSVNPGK

B1: 8D6 Fab (Fab, V domains shown)
VH: QVQLQQSGAELAKPGASVMLSCKASGYTFNGYWMHWVKQRPGQDLEWIGYINPTTGHTEYNQKFKDKATLTADESSNTAYIELSSLTSDDSAVYYCARQEYRHSWFAYWGQGTLVTVSA
VL: DIVLTQSPASLAVSLGQRATISCKASQSVDYDGDTYMNWYHQKPGQPPKLLIYAASNLDSGIPARFSGSGSGTDFTLNIHPVEEEDAATYYCQQTNEDPWTFGGGTKLEIK
With B1, in assay [1], the Kd was found to be 60 pM, the koff is 6e-05 s⁻¹ and the kon stood at 1e+06 M⁻¹ s⁻¹. This molecule had a stoichiometry N in assay [2] of 2.

Values taken from paper PMC6070508.
